Literature values, collected in PMC8355678.

Tests used:
[1] = molecular target: CCL2 receptor on monocytes (Homo sapiens) (UniProt P41597)
CXCR3 (Homo sapiens) = CXCR3 (Homo sapiens) (UniProt P49682)
Sequence of UniProt P49682 (P49682 whole entry): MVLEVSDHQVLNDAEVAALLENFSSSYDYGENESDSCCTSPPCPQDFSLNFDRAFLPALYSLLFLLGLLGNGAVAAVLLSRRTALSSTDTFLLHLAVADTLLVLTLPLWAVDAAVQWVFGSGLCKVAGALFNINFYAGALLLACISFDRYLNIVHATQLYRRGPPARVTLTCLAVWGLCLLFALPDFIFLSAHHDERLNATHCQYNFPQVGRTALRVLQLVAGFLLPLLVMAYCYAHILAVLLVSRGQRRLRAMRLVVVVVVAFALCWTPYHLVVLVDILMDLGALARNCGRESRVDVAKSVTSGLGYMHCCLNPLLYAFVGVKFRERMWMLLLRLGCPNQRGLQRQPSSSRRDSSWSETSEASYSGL

Sequence of UniProt P41597 (P41597 whole entry): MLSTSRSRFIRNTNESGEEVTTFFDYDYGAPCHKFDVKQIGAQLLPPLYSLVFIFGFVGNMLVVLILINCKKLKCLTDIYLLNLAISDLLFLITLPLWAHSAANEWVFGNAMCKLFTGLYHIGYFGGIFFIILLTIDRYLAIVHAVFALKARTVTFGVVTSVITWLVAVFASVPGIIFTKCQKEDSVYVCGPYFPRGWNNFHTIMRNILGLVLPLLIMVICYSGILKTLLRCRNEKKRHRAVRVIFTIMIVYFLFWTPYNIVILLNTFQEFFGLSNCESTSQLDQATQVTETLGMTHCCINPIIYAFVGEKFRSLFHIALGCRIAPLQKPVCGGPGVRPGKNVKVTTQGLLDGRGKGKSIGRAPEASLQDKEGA
Sequence of CCL2 (P13500 24-99): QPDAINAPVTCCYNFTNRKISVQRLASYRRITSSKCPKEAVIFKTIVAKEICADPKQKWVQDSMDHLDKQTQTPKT

Substance | Kd [1] [nM] | Kd (CXCR3 (Homo sapiens)) [nM]
CCL2 (from UniProt P13500) | 0.77 | 
CXCL10 (from UniProt P02778) |  | 0.25
